Experimental data from paper PMC8244358.

How the values were obtained:
[1] = target: Cfl1 (Cif-like epoxide hydrolase 1) from Burkholderia cenocepacia strain J2315 / K56-2 (Burkholderia cenocepacia strain K56-2 (identical to strain J2315)); assay: crystal structure; hanging drop vapor diffusion; X-ray, 2.2 Å; molecular replacement with a Cif monomer
[2] = target: Cfl2 (Cif-like epoxide hydrolase 2) from Burkholderia cenocepacia strain HI2424 (Burkholderia cenocepacia strain HI2424); assay: as above

With “Cfl1 (Cif-like epoxide hydrolase 1) from Burkholderia cenocepacia strain J2315 / K56-2 (enzyme)” the stoichiometry N [1] was 8.

Substance “Cfl2 (Cif-like epoxide hydrolase 2) from Burkholderia cenocepacia strain HI2424 (enzyme)” has a stoichiometry N [2] of 10.
